The source of these data is patent US20260097129A1, “ANTIBODY-DRUG CONJUGATE COMPRISING DRUG AND ANTIBODY SPECIFICALLY BINDING TO GRP94 OR ANTIGEN-BINDING FRAGMENT THEREOF” (KOOKMIN UNIVERSITY INDUSTRY ACADEMY COOPERATION FOUNDATION, priority 2022, published 2026).

For one assay, the system named is HCT116 cells. Nature of the assay: Antibody internalization, FabFluor-pH Red labeling, Incucyte live cell imaging. The format is cell-based, human. As for the experimental part: Antibody internalization in HCT116 cells was measured using the FabFluor-pH Red Antibody Labeling Reagent (Sartorius, Gottingen, Germany) according to the manufacturer's instructions. […] HCT116 cells were seeded at a density of 10,000 cells/well in a 96-well culture plate and allowed to adhere overnight. The control IgG, K101.1, or trastuzumab (MedChemExpress, Princeton, NJ, USA) were individually labeled with the human FabFluor-pH Red antibody labeling reagent at a 1:3 molar ratio in PBS and incubated for 15 minutes. The labeled antibodies were added to the cell culture medium at a final concentration of 2 μg/ml. The plate was transferred to the Incucyte SX1 live cell analysis system (Sartorius) and images were captured with a 10× objective lens for 12 hours. The fluorescence intensity was individually measured for each image.
The internalization of antibodies in HCT116 cells was measured using the FabFluor-pH Red antibody labeling reagent (Sartorius, Göttingen, Germany) according to the manufacturer's instructions. […] However, after internalization of the reagent-labeled antibody, the fluorescence intensity increases under the acidic conditions inside endosomes and lysosomes. HCT116 cells were seeded at a density of 10,000 cells per well in a 96-well culture plate and allowed to attach overnight. […] Fluorescence intensity was then measured.

Another assay relates to HCT116. Put plainly: Cell proliferation assay, real-time live cell imaging (Incucyte). The format is cell-based, human. As to conditions: 133 nM K101.1, 33 nM and 133 nM K101.1-Sec-DM1, 62 hours, FIG. 9. As for the experimental part: (§1) To investigate the effect of K101.1-Sec-DM1 on CRC cell growth in vitro, 1×10^4 HT29, LoVo, or 5×10^3 HCT116 CRC cells were seeded in the wells of a 96-well plate and incubated at 37° C. for 16 hours. The cells were then treated with either 133 nM of K101.1 or 33 nM and 133 nM of K101.1-Sec-DM1, with or without the presence of the drug. Cell growth was measured for 62 hours using the Incucyte SX1 live cell analysis instrument (Sartorius).

A further assay concerns LoVo. The assay is described as above. The format is cell-based, human. Conditions: 133 nM K101.1, 33 nM and 133 nM K101.1-Sec-DM1, 62 hours, FIG. 9. As for the experimental part: as §1
The next assay has as its system HT29. The assay is described as above. The format is cell-based, human. Conditions: 133 nM K101.1, 33 nM and 133 nM K101.1-Sec-DM1, 62 hours, FIG. 9. As for the experimental part: as §1
The target in another assay is rhGRP94 (Homo sapiens, UniProt P14625). Put plainly: ELISA binding to immobilized rhGRP94. Conditions: immobilized rhGRP94, FIG. 8. As for the experimental part:
A 96-well microplate was coated with 0.1 μg of rhGRP94 and incubated at 4° C. for 16 hours. After blocking the plate with 3% (w/v) BSA in PBS at 37° C. for 2 hours, the plate was incubated with 20 µg/mL of K101.1-Sec (SelT) at 37° C. for 2 hours. After washing the plate three times with PBS-T, it was incubated with HRP-conjugated anti-human Fc secondary antibody (1:5,000; Invitrogen) or HRP-conjugated anti-HA antibody (1:3,000; Bethyl Laboratories, Montgomery, TX, USA) at 37° C. for 1 hour. The color reaction was initiated with 100 μL of TMB substrate solution and terminated with 2N H2SO4 solution. Optical density was measured at 450 nm using a microplate reader.
A 96-well microplate was coated with 0.1 μg of rhGRP94 and incubated at 4° C. for 16 hours. After blocking with 3% (w/v) BSA in PBS at 37° C. for 2 hours, the plate was incubated with 20 μg/mL of K101.1-Sec (SelT) at 37° C. for 2 hours. After washing three times with PBS-T, the plate was incubated with HRP-conjugated anti-human Fc secondary antibody (1:5,000; Invitrogen) at 37° C. for 1 hour. The color reaction was initiated with 100 μL of TMB substrate solution and terminated with 2N H2SO4 solution. Optical density was measured at 450 nm using a microplate reader.
Background: An ELISA detects its analyte on a solid surface through an enzyme-linked reagent.

A further assay deals with rmGRP94 (Mus musculus, UniProt P08113). Nature of the assay: ELISA binding to immobilized rmGRP94. Conditions: immobilized rmGRP94, FIG. 8.
Chain of rmGRP94 (P08113 22-802): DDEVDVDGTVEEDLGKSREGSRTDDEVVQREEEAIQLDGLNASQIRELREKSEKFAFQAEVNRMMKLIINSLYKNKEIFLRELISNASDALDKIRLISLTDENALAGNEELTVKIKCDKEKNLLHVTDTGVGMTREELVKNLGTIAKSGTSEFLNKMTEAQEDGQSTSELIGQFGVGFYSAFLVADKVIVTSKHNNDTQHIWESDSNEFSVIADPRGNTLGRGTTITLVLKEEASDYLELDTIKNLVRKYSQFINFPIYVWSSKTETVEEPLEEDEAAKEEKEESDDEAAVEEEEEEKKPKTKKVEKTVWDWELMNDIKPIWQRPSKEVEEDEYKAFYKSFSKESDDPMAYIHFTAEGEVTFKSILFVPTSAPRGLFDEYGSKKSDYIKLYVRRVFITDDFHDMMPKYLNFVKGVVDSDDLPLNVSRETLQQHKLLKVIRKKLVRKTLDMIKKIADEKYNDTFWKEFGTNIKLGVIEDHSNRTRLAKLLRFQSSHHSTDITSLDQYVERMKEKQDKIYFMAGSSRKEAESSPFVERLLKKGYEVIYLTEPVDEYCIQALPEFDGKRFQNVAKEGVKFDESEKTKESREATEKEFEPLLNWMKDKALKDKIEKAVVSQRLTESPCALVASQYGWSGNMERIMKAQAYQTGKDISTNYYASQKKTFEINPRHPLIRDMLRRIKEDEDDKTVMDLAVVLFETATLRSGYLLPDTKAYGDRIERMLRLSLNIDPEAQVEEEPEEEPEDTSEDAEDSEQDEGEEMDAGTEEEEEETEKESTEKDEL

Chain of rhGRP94 (P14625 22-803): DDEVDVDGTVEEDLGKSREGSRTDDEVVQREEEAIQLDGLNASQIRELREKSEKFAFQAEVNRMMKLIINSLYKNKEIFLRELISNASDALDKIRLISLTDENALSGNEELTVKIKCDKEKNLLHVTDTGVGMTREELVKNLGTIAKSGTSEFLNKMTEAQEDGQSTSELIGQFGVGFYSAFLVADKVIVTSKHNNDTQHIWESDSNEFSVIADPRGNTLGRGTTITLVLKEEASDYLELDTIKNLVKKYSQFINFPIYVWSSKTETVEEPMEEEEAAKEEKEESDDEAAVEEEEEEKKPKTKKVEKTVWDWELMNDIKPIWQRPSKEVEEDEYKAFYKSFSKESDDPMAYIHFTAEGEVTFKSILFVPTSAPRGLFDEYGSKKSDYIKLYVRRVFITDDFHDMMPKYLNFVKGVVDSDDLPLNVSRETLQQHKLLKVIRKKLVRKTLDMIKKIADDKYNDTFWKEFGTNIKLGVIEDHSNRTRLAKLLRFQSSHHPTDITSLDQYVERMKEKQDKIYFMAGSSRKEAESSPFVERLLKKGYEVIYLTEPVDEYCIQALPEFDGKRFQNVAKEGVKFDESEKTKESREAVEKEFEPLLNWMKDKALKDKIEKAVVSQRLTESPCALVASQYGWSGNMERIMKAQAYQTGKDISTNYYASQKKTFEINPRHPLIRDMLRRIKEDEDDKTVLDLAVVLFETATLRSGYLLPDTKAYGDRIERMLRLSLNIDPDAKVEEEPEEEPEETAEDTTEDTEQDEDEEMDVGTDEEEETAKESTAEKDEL

B1: K101.1: GRP94-specific IgG antibody, CDRs SEQ ID NO: 1-6, VH SEQ ID NO: 7, VL SEQ ID NO: 8 (antibody, V domains shown)
VH: EVQLLESGGGLVQPGGSLRLSCAASGFTFSNYSMSWVRQAPGKGLEWVSGIYYGSGNKYYADSVKGRFTISRDNSKNTLYLQMNSLRAEDTAVYYCAKNLASFDYWGQGTLVTVSS
VL: QSVLTQPPSASGTPGQRVTISCSGSSSNIGSNSVNWYQQLPGTAPKLLIYSNSHRPSGVPDRFSGSKSGTSASLAISGLRSEDEADYYCGTWDSSLSGYVFGGGTKLTVL
As to B1, in the assay on HCT116 cells (labeled antibody 2 μg/mL, imaged for 10 hours, Example 2, FIG. 10), the “antibody internalization (FabFluor fluorescence intensity)” value is on record as “exhibited stronger internalization than trastuzumab”. For the same molecule, the “antibody internalization (FabFluor red fluorescence intensity)” value in the assay on HCT116 cells (labeled antibody 2 μg/ml, imaged for 12 hours, Example 1, FIG. 1) is “promoted internalization more efficiently than trastuzumab”. For the same molecule, the “effect on CRC cell growth” value in the assay on HCT116, with LoVo and with HT29 was “little to no effect” each time.

B2: K101.1-Sec-DM1 (conjugate)
heavy: EVQLLESGGGLVQPGGSLRLSCAASGFTFSNYSMSWVRQAPGKGLEWVSGIYYGSGNKYYADSVKGRFTISRDNSKNTLYLQMNSLRAEDTAVYYCAKNLASFDYWGQGTLVTVSS
light: QSVLTQPPSASGTPGQRVTISCSGSSSNIGSNSVNWYQQLPGTAPKLLIYSNSHRPSGVPDRFSGSKSGTSASLAISGLRSEDEADYYCGTWDSSLSGYVFGGGTKLTVL
modifications: non-natural residues; left off: small tags and cut ends; large carriers
As to B2, the “antigen binding by ELISA compared with parent antibody K101.1” value with rhGRP94 and in the assay with rmGRP94 was “no significant difference in antigen binding” throughout. Also, the “effect on CRC cell growth” value in the assay with HCT116 is “significantly and more strongly inhibited the growth”; with LoVo, “significantly and more strongly inhibited the growth”; in the assay with HT29, “significantly and more strongly inhibited the growth”.
